T1: CHK1(h) (human, UniProt O14757 1-476)
T1 sequence (looked up): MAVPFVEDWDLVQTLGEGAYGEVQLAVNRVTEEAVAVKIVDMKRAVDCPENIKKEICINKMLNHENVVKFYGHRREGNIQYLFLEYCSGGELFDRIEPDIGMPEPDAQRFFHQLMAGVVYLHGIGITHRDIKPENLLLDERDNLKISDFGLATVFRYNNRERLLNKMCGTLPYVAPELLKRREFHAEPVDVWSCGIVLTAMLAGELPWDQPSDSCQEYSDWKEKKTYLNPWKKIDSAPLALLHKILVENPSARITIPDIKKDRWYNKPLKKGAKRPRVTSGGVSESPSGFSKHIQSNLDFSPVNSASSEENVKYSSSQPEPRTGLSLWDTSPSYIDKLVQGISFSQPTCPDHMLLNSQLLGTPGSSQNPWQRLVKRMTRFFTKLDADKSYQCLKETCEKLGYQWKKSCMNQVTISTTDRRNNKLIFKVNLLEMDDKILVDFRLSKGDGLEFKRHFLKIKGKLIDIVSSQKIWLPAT

T2: MuSK(h) (human, UniProt O15146 517-869, limits assumed)
T2 sequence (looked up): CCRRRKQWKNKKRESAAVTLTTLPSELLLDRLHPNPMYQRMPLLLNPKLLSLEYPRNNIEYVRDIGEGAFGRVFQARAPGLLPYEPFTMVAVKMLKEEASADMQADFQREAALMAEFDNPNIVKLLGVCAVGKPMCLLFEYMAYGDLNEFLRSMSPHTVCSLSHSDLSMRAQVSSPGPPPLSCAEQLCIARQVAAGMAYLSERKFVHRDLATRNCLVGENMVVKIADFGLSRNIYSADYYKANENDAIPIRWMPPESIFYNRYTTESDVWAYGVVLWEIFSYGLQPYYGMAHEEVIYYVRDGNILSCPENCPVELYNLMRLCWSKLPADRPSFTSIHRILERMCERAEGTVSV

T3: Bmx(h) (human, UniProt P51813 1-675, limits assumed)
T3 sequence (looked up): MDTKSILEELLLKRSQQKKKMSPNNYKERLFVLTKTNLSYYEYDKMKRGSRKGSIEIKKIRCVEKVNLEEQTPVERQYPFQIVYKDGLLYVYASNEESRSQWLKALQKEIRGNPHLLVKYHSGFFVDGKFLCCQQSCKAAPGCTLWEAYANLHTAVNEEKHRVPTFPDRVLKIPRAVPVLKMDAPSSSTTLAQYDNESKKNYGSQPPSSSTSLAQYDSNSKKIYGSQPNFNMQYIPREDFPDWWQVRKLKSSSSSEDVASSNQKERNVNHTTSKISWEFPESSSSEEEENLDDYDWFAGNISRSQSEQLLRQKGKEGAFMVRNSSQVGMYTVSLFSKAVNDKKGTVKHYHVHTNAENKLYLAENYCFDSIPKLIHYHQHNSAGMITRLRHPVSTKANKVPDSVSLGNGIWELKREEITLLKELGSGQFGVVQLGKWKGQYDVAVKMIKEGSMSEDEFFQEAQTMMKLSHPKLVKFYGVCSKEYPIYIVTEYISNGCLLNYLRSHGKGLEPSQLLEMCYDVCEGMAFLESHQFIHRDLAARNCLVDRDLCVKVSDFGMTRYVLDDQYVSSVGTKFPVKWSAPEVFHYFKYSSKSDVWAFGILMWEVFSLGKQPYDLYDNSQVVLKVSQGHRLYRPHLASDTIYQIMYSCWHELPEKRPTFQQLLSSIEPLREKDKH


Experiments:
Assay in all cases: cell-based or functional assay
CDK5/p25(h) = CDK5/p25(h) (human, UniProt Q00535 1-292; Q15078 99-307)
CHK1(h) = target: T1, CHK1(h)
MuSK(h) = target: T2, MuSK(h)
PKGη(h) = PKGη(h) (human)
GRK5(h) = GRK5(h) (human, UniProt P34947 1-590)
Tie2(R849W)(h) = Tie2(R849W)(h) (human, UniProt Q02763 771-1124, limits assumed)
PDGFRα(h) = PDGFRα(h) (human, UniProt P16234 550-1089, limits assumed)
Met(D1246H)(h) = Met(D1246H)(h) (human, UniProt P08581-2 974-1408, limits assumed)
FAK(h) = FAK(h) (human, UniProt Q05397 1-1052, limits assumed)
Bmx(h) = target: T3, Bmx(h)
STK33(h) = STK33(h) (human, UniProt Q9BYT3 1-514, limits assumed)
MSK1(h) = MSK1(h) (human, UniProt O75582 1-802)
PKA(h) = PKA(h) (human, UniProt P17612 1-351)
JAK3(h) = JAK3(h) (human, UniProt P52333 781-1124, limits assumed)
Met(D1246N)(h) = Met(D1246N)(h) (human, UniProt P08581-2 974-1408, limits assumed)
Mnk2(h) = Mnk2(h) (human, UniProt Q9HBH9 1-465, limits assumed)
CaMKI(h) = CaMKI(h) (human, UniProt Q14012 1-370)
TrkB(h) = TrkB(h) (human, UniProt Q16620 455-822, limits assumed)
MAPKAP-K3(h) = MAPKAP-K3(h) (human, UniProt Q16644 1-382, limits assumed)
MAPKAP-K2(h) = MAPKAP-K2(h) (human, UniProt P49137 46-400)
Lck(h) = Lck(h) (human, UniProt P06239 1-509)
Abl(M351T)(h) = Abl(M351T)(h) (human, UniProt P00519 27-1130, limits assumed)
JAK2(h) = JAK2(h) (human, UniProt O60674 808-1132, limits assumed)
Chain of JAK2(h) (O60674 808-1132 limits assumed): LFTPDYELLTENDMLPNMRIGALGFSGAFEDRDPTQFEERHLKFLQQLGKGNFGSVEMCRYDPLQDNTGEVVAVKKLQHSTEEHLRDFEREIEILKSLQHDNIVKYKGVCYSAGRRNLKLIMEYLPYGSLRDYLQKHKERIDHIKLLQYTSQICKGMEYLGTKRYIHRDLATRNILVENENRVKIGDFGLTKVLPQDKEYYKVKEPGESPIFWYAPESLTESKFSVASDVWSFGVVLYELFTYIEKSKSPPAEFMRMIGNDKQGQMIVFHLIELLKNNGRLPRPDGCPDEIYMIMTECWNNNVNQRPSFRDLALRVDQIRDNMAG

Chain of MSK1(h) (O75582 whole entry): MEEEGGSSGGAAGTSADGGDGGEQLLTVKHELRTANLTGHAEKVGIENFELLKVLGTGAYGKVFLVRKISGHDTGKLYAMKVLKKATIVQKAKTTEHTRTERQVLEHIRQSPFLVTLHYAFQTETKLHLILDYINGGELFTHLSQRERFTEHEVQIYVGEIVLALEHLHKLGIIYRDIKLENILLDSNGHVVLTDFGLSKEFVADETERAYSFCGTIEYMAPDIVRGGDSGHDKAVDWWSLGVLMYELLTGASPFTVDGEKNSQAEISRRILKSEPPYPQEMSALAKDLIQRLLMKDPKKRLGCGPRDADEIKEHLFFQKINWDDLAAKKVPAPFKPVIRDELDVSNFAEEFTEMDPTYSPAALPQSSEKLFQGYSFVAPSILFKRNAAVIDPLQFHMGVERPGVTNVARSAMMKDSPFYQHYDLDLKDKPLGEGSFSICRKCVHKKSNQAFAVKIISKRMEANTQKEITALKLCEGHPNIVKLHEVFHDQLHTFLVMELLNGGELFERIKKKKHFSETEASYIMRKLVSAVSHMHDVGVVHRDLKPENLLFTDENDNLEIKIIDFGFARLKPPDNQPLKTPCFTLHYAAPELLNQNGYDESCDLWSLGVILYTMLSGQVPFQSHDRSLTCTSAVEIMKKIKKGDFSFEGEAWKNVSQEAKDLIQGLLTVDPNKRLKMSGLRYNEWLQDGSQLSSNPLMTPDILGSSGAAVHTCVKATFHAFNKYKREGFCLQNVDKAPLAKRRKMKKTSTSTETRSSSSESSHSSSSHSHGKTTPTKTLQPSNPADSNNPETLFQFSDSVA
Chain of MAPKAP-K2(h) (P49137 46-400 limits assumed): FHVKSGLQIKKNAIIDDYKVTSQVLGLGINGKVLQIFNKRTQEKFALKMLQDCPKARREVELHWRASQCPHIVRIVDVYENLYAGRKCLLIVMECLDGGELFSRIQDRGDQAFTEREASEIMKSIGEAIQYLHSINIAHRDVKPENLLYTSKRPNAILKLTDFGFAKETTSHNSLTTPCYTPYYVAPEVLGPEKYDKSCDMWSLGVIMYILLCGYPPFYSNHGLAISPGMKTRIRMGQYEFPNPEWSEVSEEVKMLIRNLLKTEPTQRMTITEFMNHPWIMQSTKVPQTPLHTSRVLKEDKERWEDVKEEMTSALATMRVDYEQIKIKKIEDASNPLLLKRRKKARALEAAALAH
Chain of MAPKAP-K3(h) (Q16644 whole entry): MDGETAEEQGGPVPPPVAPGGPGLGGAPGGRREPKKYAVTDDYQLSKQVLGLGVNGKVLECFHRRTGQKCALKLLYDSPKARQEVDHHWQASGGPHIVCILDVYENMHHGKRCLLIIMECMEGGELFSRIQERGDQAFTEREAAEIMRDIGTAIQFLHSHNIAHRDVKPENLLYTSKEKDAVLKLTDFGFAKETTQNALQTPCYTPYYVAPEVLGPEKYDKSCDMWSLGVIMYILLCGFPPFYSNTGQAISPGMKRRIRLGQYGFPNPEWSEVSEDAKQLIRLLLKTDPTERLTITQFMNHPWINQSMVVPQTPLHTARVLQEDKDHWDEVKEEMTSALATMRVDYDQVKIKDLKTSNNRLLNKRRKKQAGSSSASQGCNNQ
Chain of Mnk2(h) (Q9HBH9 whole entry): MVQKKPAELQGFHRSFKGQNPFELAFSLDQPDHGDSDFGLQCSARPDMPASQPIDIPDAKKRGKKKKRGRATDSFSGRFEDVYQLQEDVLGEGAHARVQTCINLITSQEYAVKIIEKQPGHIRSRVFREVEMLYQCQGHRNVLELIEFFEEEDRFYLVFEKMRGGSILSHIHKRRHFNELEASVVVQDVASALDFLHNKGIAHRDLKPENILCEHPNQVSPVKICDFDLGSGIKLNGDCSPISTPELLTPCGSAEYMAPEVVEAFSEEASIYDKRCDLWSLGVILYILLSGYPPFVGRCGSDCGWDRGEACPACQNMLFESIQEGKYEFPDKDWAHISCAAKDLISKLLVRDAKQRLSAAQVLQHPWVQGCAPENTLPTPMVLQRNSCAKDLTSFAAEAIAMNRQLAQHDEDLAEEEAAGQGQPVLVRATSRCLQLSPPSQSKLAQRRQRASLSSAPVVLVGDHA
Chain of CaMKI(h) (Q14012 whole entry): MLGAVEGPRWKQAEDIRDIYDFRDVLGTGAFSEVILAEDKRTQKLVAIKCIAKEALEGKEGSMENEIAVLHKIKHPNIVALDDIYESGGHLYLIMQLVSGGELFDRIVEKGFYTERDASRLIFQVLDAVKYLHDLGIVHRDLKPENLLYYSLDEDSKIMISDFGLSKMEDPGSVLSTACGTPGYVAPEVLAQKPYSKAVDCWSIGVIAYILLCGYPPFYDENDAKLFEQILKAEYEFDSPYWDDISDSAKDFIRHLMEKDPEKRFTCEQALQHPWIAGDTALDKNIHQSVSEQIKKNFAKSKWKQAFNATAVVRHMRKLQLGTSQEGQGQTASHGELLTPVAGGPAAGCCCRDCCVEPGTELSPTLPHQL
Chain of PDGFRα(h) (P16234 550-1089 limits assumed): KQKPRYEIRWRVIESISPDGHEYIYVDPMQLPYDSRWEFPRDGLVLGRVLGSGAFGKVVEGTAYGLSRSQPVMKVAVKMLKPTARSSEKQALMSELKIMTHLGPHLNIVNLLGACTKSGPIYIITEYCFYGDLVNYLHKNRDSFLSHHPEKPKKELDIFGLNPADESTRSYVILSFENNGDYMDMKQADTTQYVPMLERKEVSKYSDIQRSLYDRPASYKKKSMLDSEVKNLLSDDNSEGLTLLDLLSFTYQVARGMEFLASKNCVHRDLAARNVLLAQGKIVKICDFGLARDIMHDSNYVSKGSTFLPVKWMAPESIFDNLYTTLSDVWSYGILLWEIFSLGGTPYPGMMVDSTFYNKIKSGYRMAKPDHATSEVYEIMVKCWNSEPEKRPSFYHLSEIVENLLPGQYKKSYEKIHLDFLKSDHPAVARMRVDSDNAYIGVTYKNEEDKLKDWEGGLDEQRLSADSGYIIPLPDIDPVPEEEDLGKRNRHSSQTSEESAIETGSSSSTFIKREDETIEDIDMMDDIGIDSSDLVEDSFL
Chain of TrkB(h) (Q16620 455-822 limits assumed): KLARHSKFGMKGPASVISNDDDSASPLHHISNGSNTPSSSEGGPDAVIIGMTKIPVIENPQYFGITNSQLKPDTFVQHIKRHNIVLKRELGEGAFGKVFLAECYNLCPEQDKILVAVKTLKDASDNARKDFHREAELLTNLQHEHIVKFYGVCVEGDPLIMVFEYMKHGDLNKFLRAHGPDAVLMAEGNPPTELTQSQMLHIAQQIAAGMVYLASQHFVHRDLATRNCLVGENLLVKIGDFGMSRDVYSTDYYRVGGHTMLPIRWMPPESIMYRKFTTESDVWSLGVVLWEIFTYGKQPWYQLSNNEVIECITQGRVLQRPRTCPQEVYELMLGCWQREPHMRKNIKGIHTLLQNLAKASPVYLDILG
Chain of STK33(h) (Q9BYT3 whole entry): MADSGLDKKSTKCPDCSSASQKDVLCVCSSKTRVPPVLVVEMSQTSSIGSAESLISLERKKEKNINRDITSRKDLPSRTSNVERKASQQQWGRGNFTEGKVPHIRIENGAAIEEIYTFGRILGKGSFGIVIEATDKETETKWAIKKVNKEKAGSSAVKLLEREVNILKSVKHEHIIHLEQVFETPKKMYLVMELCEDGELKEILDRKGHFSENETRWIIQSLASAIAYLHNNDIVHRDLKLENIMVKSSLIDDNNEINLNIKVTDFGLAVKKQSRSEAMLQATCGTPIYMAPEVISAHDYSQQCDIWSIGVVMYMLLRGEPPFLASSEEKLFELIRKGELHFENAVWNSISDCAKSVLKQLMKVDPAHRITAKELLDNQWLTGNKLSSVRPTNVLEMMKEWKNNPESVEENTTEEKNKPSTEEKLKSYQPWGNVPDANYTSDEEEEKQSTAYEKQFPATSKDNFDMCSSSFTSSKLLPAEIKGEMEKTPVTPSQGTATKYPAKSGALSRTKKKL
Chain of Tie2(R849W)(h) (Q02763 771-1124 R849W limits assumed): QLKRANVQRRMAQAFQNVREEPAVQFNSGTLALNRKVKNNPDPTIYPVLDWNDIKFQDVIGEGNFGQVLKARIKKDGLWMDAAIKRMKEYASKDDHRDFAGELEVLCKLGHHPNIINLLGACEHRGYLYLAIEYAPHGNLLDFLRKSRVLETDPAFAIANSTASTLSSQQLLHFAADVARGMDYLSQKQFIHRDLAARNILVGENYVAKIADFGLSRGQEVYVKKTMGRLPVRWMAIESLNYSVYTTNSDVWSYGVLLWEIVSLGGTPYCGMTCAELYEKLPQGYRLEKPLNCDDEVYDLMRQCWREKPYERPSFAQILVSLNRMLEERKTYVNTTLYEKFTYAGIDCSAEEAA
Chain of JAK3(h) (P52333 781-1124 limits assumed): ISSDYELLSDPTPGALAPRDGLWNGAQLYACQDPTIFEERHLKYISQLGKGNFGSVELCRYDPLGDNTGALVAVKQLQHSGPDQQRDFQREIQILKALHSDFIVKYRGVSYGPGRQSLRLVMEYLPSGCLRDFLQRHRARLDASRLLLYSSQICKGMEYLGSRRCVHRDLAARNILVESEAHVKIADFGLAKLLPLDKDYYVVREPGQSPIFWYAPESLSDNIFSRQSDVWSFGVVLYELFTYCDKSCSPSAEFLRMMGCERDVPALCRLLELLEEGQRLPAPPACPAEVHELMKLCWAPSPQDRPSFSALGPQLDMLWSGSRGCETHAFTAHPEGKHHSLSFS

Binder | % activity, 100 µM (CDK5/p25(h)) [%] | % activity, 100 µM (CHK1(h)) [%] | % activity, 100 µM (MuSK(h)) [%] | % activity, 100 µM (PDGFRα(h)) [%] | % activity, 100 µM (Met(D1246H)(h)) [%] | % activity, 100 µM (STK33(h)) [%] | % activity, 100 µM (MSK1(h)) [%] | % activity, 100 µM (Met(D1246N)(h)) [%] | % activity, 100 µM (Mnk2(h)) [%] | inhibition of kinase activity at 100 µM (CaMKI(h)) [%] | inhibition of kinase activity at 100 µM (TrkB(h)) [%] | inhibition of kinase activity at 100 µM (MAPKAP-K3(h)) [%] | inhibition of kinase activity at 100 µM (MAPKAP-K2(h)) [%] | further results
KAFAKLAARLYRKALARQLGVAA [MMI-0400] | 192 | 87 | 93 | 40 | 68 | 52 | 28 | 31 | 86 | > 65 | > 65 | > 65 | > 65 | % activity, 100 µM (PKGη(h)): 98%; % activity, 100 µM (GRK5(h)): 131%; % activity, 100 µM (Tie2(R849W)(h)): 108%; % activity, 100 µM (FAK(h)): 96%; % activity, 100 µM (Bmx(h)): 26%; % activity, 100 µM (PKA(h)): 119%; % activity, 100 µM (JAK3(h)): 122%
FAKLAARLYRKALARQLGVAA [MMI-0300] | 89 | 91 | 93 | 65 | 125 | 45 | 32 | 82 | 89 | > 65 | > 65 | > 65 | > 65 | % activity, 100 µM (Lck(h)): -2%; % activity, 100 µM (Abl(M351T)(h)): 90%; % activity, 100 µM (JAK2(h)): 133%

Source: patent US20140072613A1 (published 2014)
